Results published in article PMC9482650, “Quantitative fragmentomics allow affinity mapping of interactomes” (Nature Communications, 2022).

Key:
Experiment in all cases: holdup assay
Parameters in all cases: key: below the threshold = too weak to quantify, mostly under pKd 3.1 to 4
DFNB31_3, Q9P202 = molecular target: T1, DFNB31_3, Q9P202
T1 sequence (Q9P202 811-907, limits assumed, looked up): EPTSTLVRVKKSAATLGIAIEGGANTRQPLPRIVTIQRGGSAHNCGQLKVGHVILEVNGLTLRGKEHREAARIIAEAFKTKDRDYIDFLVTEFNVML

LNX2_2, Q8N448 = molecular target: T2, LNX2_2, Q8N448
T2 sequence (Q8N448 334-432, limits assumed, looked up): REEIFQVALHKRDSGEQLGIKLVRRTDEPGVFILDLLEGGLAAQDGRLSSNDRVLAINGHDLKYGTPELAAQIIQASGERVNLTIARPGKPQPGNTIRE

SCRIB_1, Q14160 = molecular target: SCRIB_1, Q14160
Sequence of SCRIB_1, Q14160 (Q14160 718-814): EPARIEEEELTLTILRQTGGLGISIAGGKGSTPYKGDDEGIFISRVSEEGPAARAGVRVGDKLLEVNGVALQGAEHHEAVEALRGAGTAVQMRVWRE

NHERF4_2, Q86UT5 = molecular target: NHERF4_2, Q86UT5
Sequence of NHERF4_2, Q86UT5 (Q86UT5 220-308): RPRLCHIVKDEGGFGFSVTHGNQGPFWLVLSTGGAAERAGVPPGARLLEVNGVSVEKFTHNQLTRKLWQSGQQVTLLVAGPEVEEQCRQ

SHANK1, Q9Y566 = molecular target: T3, SHANK1, Q9Y566
T3 sequence (Q9Y566 658-767, limits assumed, looked up): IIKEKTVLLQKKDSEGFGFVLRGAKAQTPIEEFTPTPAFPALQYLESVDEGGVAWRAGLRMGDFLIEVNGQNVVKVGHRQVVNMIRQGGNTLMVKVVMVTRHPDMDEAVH

PDZRN4_1, Q6ZMN7 = molecular target: PDZRN4_1, Q6ZMN7
Sequence of PDZRN4_1, Q6ZMN7 (Q6ZMN7 213-318): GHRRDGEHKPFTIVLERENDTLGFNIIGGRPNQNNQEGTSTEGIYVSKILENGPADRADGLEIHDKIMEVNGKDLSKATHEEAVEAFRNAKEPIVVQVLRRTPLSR

MAGI1_2, Q96QZ7 = molecular target: MAGI1_2, Q96QZ7
Sequence of MAGI1_2, Q96QZ7 (Q96QZ7 456-580): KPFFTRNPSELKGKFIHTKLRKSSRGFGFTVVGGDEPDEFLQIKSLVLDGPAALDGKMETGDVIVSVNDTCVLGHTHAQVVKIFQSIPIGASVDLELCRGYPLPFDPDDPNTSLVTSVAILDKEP

RHPN1, Q8TCX5 = molecular target: T4, RHPN1, Q8TCX5
T4 sequence (Q8TCX5 508-602, limits assumed, looked up): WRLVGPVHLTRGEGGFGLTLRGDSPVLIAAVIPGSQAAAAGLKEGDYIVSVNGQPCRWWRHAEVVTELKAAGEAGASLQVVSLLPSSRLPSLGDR

MAGI2_3, Q86UL8 = molecular target: MAGI2_3, Q86UL8
Sequence of MAGI2_3, Q86UL8 (Q86UL8 600-682): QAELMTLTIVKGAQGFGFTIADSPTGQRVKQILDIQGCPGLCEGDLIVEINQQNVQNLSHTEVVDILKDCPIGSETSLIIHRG

SNTG1, Q9NSN8 = molecular target: T5, SNTG1, Q9NSN8
T5 sequence (Q9NSN8 52-150, limits assumed, looked up): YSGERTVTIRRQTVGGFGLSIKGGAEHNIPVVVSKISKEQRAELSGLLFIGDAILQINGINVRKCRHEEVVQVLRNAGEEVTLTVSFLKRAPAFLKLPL

GORASP2, Q9H8Y8 = molecular target: GORASP2, Q9H8Y8
Inadl_8, Q8NI35 = molecular target: Inadl_8, Q8NI35
Sequence of Inadl_8, Q8NI35 (Q8NI35 1425-1530): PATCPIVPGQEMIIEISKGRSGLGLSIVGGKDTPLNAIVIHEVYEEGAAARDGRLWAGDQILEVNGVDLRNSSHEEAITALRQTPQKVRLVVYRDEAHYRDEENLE

MPP2, Q14168 = molecular target: T6, MPP2, Q14168
T6 sequence (Q14168 180-250, limits assumed, looked up): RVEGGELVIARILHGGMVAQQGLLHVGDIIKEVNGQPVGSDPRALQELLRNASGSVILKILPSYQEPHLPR

SYNJ2BP, P57105 = molecular target: T7, SYNJ2BP, P57105
T7 sequence (P57105 8-110, limits assumed, looked up): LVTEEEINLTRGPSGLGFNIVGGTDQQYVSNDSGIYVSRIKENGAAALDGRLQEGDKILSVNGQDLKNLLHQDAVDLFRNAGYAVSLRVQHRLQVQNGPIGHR

TJP1_2, Q07157 = molecular target: TJP1_2, Q07157
Sequence of TJP1_2, Q07157 (Q07157 181-274): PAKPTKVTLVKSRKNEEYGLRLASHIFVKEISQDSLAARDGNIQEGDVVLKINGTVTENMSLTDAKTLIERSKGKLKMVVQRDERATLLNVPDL

DLG3_2, Q92796 = molecular target: T8, DLG3_2, Q92796
T8 sequence (Q92796 221-321, limits assumed, looked up): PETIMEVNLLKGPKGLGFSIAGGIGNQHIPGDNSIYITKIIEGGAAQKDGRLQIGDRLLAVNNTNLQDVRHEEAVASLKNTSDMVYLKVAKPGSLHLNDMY

DLG4_2, P78352 = molecular target: DLG4_2, P78352
Sequence of DLG4_2, P78352 (P78352 155-259): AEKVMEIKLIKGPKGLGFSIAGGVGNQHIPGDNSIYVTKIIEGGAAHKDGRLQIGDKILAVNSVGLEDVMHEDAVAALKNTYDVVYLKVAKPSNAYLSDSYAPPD

FRMPD3, Q5JV73 = molecular target: FRMPD3, Q5JV73
Sequence of FRMPD3, Q5JV73 (Q5JV73 12-100): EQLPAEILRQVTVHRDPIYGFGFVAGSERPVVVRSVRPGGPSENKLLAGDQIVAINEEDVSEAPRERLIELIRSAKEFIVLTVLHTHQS

PTPN3, P26045 = molecular target: PTPN3, P26045
Sequence of PTPN3, P26045 (P26045 505-587): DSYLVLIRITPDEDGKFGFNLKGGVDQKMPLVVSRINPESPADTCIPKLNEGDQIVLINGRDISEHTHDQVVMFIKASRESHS

GORASP1, Q9BQQ3 = molecular target: GORASP1, Q9BQQ3
Sequence of GORASP1, Q9BQQ3 (Q9BQQ3 1-208): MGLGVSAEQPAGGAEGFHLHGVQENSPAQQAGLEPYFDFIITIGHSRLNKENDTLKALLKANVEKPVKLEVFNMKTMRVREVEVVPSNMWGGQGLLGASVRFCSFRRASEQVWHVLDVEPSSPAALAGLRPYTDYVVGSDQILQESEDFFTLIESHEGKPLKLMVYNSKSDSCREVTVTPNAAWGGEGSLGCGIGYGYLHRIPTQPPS

MAST1, Q9Y2H9 = molecular target: MAST1, Q9Y2H9
Sequence of MAST1, Q9Y2H9 (Q9Y2H9 962-1065): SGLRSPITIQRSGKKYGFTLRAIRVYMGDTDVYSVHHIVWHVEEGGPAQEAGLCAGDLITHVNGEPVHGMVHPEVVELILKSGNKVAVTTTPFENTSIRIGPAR

LNX1_1, Q8TBB1 = molecular target: LNX1_1, Q8TBB1
Sequence of LNX1_1, Q8TBB1 (Q8TBB1 261-371): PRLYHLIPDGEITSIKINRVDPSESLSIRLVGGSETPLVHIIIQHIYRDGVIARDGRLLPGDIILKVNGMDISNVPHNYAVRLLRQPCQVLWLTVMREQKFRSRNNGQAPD

NHERF3_1, Q5T2W1 = molecular target: T9, NHERF3_1, Q5T2W1
T9 sequence (Q5T2W1 4-100, limits assumed, looked up): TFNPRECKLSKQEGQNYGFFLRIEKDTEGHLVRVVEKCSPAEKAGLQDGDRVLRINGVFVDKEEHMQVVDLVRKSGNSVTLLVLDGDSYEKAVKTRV

LIN7C, Q9NUP9 = molecular target: T10, LIN7C, Q9NUP9
T10 sequence (Q9NUP9 88-185, limits assumed, looked up): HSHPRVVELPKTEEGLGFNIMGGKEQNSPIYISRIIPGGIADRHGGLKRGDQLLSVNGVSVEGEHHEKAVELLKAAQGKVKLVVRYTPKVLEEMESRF

DLG4_1, P78352 = molecular target: DLG4_1, P78352
Sequence of DLG4_1, P78352 (P78352 62-152): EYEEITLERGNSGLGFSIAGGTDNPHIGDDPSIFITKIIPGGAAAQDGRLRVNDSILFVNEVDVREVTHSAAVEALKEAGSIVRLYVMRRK

NHERF3_4, Q5T2W1 = molecular target: T11, NHERF3_4, Q5T2W1
T11 sequence (Q5T2W1 373-468, limits assumed, looked up): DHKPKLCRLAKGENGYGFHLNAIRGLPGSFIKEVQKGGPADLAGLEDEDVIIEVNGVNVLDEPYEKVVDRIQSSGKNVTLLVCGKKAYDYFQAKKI

NHERF2_2, Q15599 = molecular target: NHERF2_2, Q15599
Sequence of NHERF2_2, Q15599 (Q15599 142-238): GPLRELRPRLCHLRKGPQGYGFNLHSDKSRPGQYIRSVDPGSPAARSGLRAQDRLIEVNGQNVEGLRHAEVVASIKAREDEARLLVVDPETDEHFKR

[1] = plain residues with an end cap or a label only (N-terminal biotin on a linker: gsgsgs; C-terminal amide)
[2] = plain residues with an end cap or a label only (N-terminal biotin on a linker: ado-ado)
[3] = plain residues with an end cap or a label only (N-terminal biotin on a linker: ttds)

Binder: ELIQDTSTSFSTTREW [ARAP3_int, Q8WWN8]
- pKd (DFNB31_3, Q9P202; [1]): 3.83
- pKd (LNX2_2, Q8N448; [1]): below the threshold
- pKd (SCRIB_1, Q14160; [1]): below the threshold
- pKd (NHERF4_2, Q86UT5; [1]): below the threshold
- pKd (SHANK1, Q9Y566; [1]): 4.4
- pKd (PDZRN4_1, Q6ZMN7; [1]): below the threshold
- pKd (MAGI1_2, Q96QZ7; [1]): below the threshold
- pKd (RHPN1, Q8TCX5; [1]): below the threshold
- pKd (MAGI2_3, Q86UL8; [1]): 3.5
- pKd (SNTG1, Q9NSN8; [1]): below the threshold
- pKd (GORASP2, Q9H8Y8; [1]): below the threshold
- pKd (Inadl_8, Q8NI35; [1]): below the threshold
- pKd (MPP2, Q14168; [1]): below the threshold
- pKd (SYNJ2BP, P57105; [1]): below the threshold
- pKd (TJP1_2, Q07157; [1]): below the threshold
- pKd (DLG3_2, Q92796; [1]): 4.16
- pKd (DLG4_2, P78352; [1]): below the threshold
- pKd (FRMPD3, Q5JV73; [1]): below the threshold
- pKd (PTPN3, P26045; [1]): 3.84
- pKd (GORASP1, Q9BQQ3; [1]): below the threshold
- pKd (MAST1, Q9Y2H9; [1]): 3.49
- pKd (LNX1_1, Q8TBB1; [1]): below the threshold
- pKd (NHERF3_1, Q5T2W1; [1]): below the threshold
- pKd (LIN7C, Q9NUP9; [1]): 4.11
- pKd (DLG4_1, P78352; [1]): below the threshold
- pKd (NHERF3_4, Q5T2W1; [1]): below the threshold
- pKd (NHERF2_2, Q15599; [1]): below the threshold

Binder: LHLHGTGIQV [EPHA7, Q15375]
- pKd (DFNB31_3, Q9P202; [2]): 3.99
- pKd (LNX2_2, Q8N448; [2]): 5.03
- pKd (SCRIB_1, Q14160; [2]): below the threshold
- pKd (NHERF4_2, Q86UT5; [2]): 3.54
- pKd (SHANK1, Q9Y566; [2]): below the threshold
- pKd (PDZRN4_1, Q6ZMN7; [2]): 3.57
- pKd (MAGI1_2, Q96QZ7; [2]): below the threshold
- pKd (RHPN1, Q8TCX5; [2]): below the threshold
- pKd (MAGI2_3, Q86UL8; [2]): 3.63
- pKd (SNTG1, Q9NSN8; [2]): 3.57
- pKd (GORASP2, Q9H8Y8; [2]): 4.46
- pKd (Inadl_8, Q8NI35; [2]): below the threshold
- pKd (MPP2, Q14168; [2]): below the threshold
- pKd (SYNJ2BP, P57105; [2]): 3.7
- pKd (TJP1_2, Q07157; [2]): 4.43
- pKd (DLG3_2, Q92796; [2]): below the threshold
- pKd (DLG4_2, P78352; [2]): 3.75
- pKd (FRMPD3, Q5JV73; [2]): 3.5
- pKd (PTPN3, P26045; [2]): 4.06
- pKd (GORASP1, Q9BQQ3; [2]): 4.23
- pKd (MAST1, Q9Y2H9; [2]): below the threshold
- pKd (LNX1_1, Q8TBB1; [2]): below the threshold
- pKd (NHERF3_1, Q5T2W1; [2]): below the threshold
- pKd (LIN7C, Q9NUP9; [2]): 4.08
- pKd (DLG4_1, P78352; [2]): 3.73
- pKd (NHERF3_4, Q5T2W1; [2]): 3.81
- pKd (NHERF2_2, Q15599; [2]): below the threshold

Binder: RTRQRNETQV [HPV51-E6, P26554]
- pKd (DFNB31_3, Q9P202; [3]): below the threshold
- pKd (LNX2_2, Q8N448; [3]): 3.61
- pKd (SCRIB_1, Q14160; [3]): 4.56
- pKd (NHERF4_2, Q86UT5; [3]): below the threshold
- pKd (SHANK1, Q9Y566; [3]): below the threshold
- pKd (PDZRN4_1, Q6ZMN7; [3]): 4.16
- pKd (MAGI1_2, Q96QZ7; [3]): 5.93
- pKd (RHPN1, Q8TCX5; [3]): 3.7
- pKd (MAGI2_3, Q86UL8; [3]): 4.02
- pKd (SNTG1, Q9NSN8; [3]): 3.98
- pKd (GORASP2, Q9H8Y8; [3]): 4.65
- pKd (Inadl_8, Q8NI35; [3]): below the threshold
- pKd (MPP2, Q14168; [3]): below the threshold
- pKd (SYNJ2BP, P57105; [3]): 5.02
- pKd (TJP1_2, Q07157; [3]): below the threshold
- pKd (DLG3_2, Q92796; [3]): 5.1
- pKd (DLG4_2, P78352; [3]): 4.99
- pKd (FRMPD3, Q5JV73; [3]): below the threshold
- pKd (PTPN3, P26045; [3]): 4.38
- pKd (GORASP1, Q9BQQ3; [3]): below the threshold
- pKd (MAST1, Q9Y2H9; [3]): 4.23
- pKd (LNX1_1, Q8TBB1; [3]): below the threshold
- pKd (NHERF3_1, Q5T2W1; [3]): 4.17
- pKd (LIN7C, Q9NUP9; [3]): 3.84
- pKd (DLG4_1, P78352; [3]): 4.9
- pKd (NHERF3_4, Q5T2W1; [3]): below the threshold
- pKd (NHERF2_2, Q15599; [3]): below the threshold
